# B1: BOR1 from Arabidopsis thaliana (AtBOR1), purified in DDM, GFP-8His tag cleaved (natural protein)
# chain: not shown
# Target: the molecule itself
# Test: SEC-MALS
protein,measurement,value
B1,stoichiometry N,2

# Source: publication PMC7366829 (Acta biomaterialia, 2020)
